{"source": "patent US20110091479A1", "about": "(PIERRE FABRE MEDICAMENT, published 2011)", "molecules": {"B1": {"name": "2D10 (antibody, V domains shown)", "VH": "EVNLVESGGILVKPGGSLRLSCAASGFTFSNYAMSWVRQTPEKRLEWVASIGSAGYIHYPDSVKGRFTISRDNARNILYLQMSSLRSEDTAMYYCAREGGLVWFAYWGQGTLVTVSA", "VL": "ETTVTQSPASLSVATGEKVTIRCITSTDIDDDMNWYQQKPGEPPKLLISEGNTLRPGVPSRFSSSGYGTDFVLTIENTLSEDVADYYCLQSDKMPLTFGAGTKLELK", "notes": "also called hybridoma CNCM I-3214"}, "B2": {"name": "12D5 (antibody, V domains shown)", "VH": "QVQLKESGPGLVAPSQSLSITCTVSGFSLNEYGVSWIRQPPGKGLEWLGVIWGGRDTYYHSPLKSRLSITKDNSKSQVFLKMNSLQTDDTAMYYCAKHEGMDYWGQGTSVTVSS", "VL": "DIVMTQSQKFMSTSVGDRVSVTCKASQNVVTNVAWYQHKPGHSPKPLIYSASYRYSGVPDRFTGSGSGTDFTLTINNVQSEDLAEYFCHQYNNFPLTFGAGTKLELK"}, "B3": {"name": "12B1 (antibody, V domains shown)", "VH": "QVQLKESGPDLVAPSQSLSITCTVSGFSLTNYGVHWVRQFPGKGLEWLGVIWAGGNTNYNSALMSRLTISKDNSKSQVFLKMNSLQTDDTAVYYCAREYGSTYVAWFAHWGQGTLVTVSS", "VL": "ENVLTQSPAIMSASPGEKVTMTCGASSSVSSSFLHWYQQKSGASPKLWIYSTSNLASGVPTRFSGSGSGTSYSLTISSVEAEDAATYYCQQYSGYPLTFGAGTKLELK"}, "B4": {"name": "13F5 (antibody, V domains shown)", "VH": "QAQLQQPGAVLVRPGASVKLSCKASSYSFTDYWMNWVKRRPGQGLQWIGLIHPSDSETRLDQNFKDKATLTVDKFSSTAYMQLNSPTSEDSAVYYCTRSVIYYGNYRWYFDVWGAGTTVTVSS", "VL": "DVLMTQTPLSLPVSLGDQASISCRSSQTIIHSNGNTYLEWYLQKPGQSPKLLIYKVSNRFSGVPDRFSGSGSGTDFTLKISRVEAEDLGVYYCFQGSHVPYTFGGGTKLEIK", "notes": "also called hybridoma CNCM I-3193"}}, "key": {"[1]": {"biological_target": "human insulin-like growth factor I receptor IGF-IR (human) (UniProt P08069)", "test": "displacement of [125I]IGF-1 on R+ intact cells expressing IGF-IR"}, "[2]": {"biological_target": "T1, human insulin-like growth factor I receptor IGF-IR (human, UniProt P08069 31-1367)", "test": "cell-based or functional assay"}, "[3]": {"biological_target": "T2, Hybrid-RsA (insulin/IGF-I hybrid receptor with IR isoform A) (human, UniProt P08069 31-1367; P06213 28-1370)", "T2 construct": "Heterodimer of an IGF-IR half and an IR-A half, captured on plates coated with antibody 83-7; also called HR-A; hybrid receptors A", "test": "displacement of [125I]-IGF1 on immunocaptured Hybrid-RsA"}, "[4]": {"biological_target": "T1, human insulin-like growth factor I …", "test": "displacement of [125I]IGF-1 on R+ intact cells expressing IGF-IR"}}}
{"molecule": "αIR3 (antibody)", "values": [{"measurement": "IC50", "setting": "[1]", "result": 50, "unit": "pM"}]}
{"molecule": "B1", "values": [{"measurement": "proliferative index of MCF-7 cells at 50 ng/ml IGF1, antibody 5 µg/ml", "setting": "[2]", "result": "< 5"}, {"measurement": "IC50", "setting": "[3]", "result": 200, "unit": "pM"}, {"measurement": "IC50", "setting": "[4]", "result": 150, "unit": "pM"}]}
{"molecule": "B2", "values": [{"measurement": "proliferative index of MCF-7 cells at 50 ng/ml IGF1, antibody 5 µg/ml", "setting": "[2]", "result": "< 5"}]}
{"molecule": "B3", "values": [{"measurement": "proliferative index of MCF-7 cells at 50 ng/ml IGF1, antibody 5 µg/ml", "setting": "[2]", "result": "< 5"}]}
{"molecule": "B4", "values": [{"measurement": "proliferative index of MCF-7 cells at 50 ng/ml IGF1, antibody 5 µg/ml", "setting": "[2]", "result": "< 5"}, {"measurement": "IC50", "setting": "[3]", "result": 350, "unit": "pM"}, {"measurement": "IC50", "setting": "[4]", "result": 200, "unit": "pM"}]}
